What was measured:
[1] = Peptide gelation (incubation, OD 550 nm, inverted tube); type: physicochemical; details: for self-assembly behaviour observed over time / gel formation in water: DI water; for self-assembly behaviour observed over time: up to 40 h; for gel formation in water: C-terminus Val mutated
Description: UV-Vis spectroscopy: The peptides were dissolved in DI water at the respective concentrations and 100 μL was aliquoted into each well of a 96-well microtiter plate, with a minimum of 3 wells per condition. UV-Vis absorbance measurements at 550 nm were recorded on a Tecan infinite M200 Pro microplate reader at intervals of 30 min for the first 16 hours and subsequently at increased time intervals.
Peptide hydrogel (GV8): GV8 peptide was dissolved in DI water at the desired concentration (between 10 and 20 mM) and incubated at ambient temperature of 23° C. to 25° C. for at least 12 hours. For active agent encapsulation, GV8 hydrogels were prepared at concentrations of 20 mM to 50 mM with 1% Dimethylsulfoxide (DMSO) added per 10 mM of peptide in PBS with a pH range of 7.2 to 7.4 to form GV8 precursors, which gelate in a sealed environment under ambient temperature of 23° C. to 25° C. with a typical gelation time ranging from 5 h to 9 h (FIG. 1), depending on the concentration of the GV8 precursor. The GV8 precursors were prepared in various types of buffer solutions—such as DI water, Dulbecco's Modified Eagle's medium (DMEM), sodium acetate buffered solution with a pH range of 4 to 5, and/or buffered solutions with a pH ranging from pH 4 to 7.4.
Peptide hydrogel (GI8): GI8 peptide was dissolved in DI water at the desired concentration (between 10 and 20 mM) and incubated at ambient temperature of 23° C. to 25° C. for at least 12 hours. GI8 hydrogels were prepared at concentrations of 20 mM to 50 mM with or without 1% Dimethylsulfoxide (DMSO) added per 10 mM of peptide in PBS with a pH range of 7.2 to 7.4 to form GI8 precursors, which gelate in a sealed environment under ambient temperature of 23° C. to 25° C. with a typical gelation time ranging from 2 h to 7 h (FIG. 1), depending on the concentration of the GI8 precursor. The GI8 precursors were prepared in various types of buffer solutions—such as DI water, Dulbecco's Modified Eagle's medium (DMEM), sodium acetate buffered solution with a pH range of 4 to 5, and/or buffered solutions with a pH ranging from pH 4 to 7.4. […]

topical puncture wounds = experiment: In vivo wound healing assay, hydrogels applied to topical puncture wounds; parameters: species or system mice; details: especially at initial stages (0 d to 2 d), n=3
Description: In vivo assay: To investigate the wound healing property of the hydrogels, 30 μL GV8 and GV8+ hydrogels loaded with 200 μg/mL ADMSC secretome were applied to topical puncture wounds on non-diabetic mice models, and monitored for a period of 2 d, 5 d and 7 d at various points in time. Representative wounds have been presented in FIG. 26, illustrating the healing of untreated (blank) and treated wounds over 7 d.

[2] = in the presence of Mg2+; cited from earlier work
[3] = Nanoindentation of GL8 beads; type: physicochemical

| Substance | self-assembly behaviour observed over time [1] | gel formation in water [1] | also measured |
| --- | --- | --- | --- |
| Ac-GLYGGYGI-NH2 [GI8] | remained in solution with some gel-like formation observed overtime |  | incubation time to hydrogel formation ([1]; 10 mM peptide in water, inverted tube test): 1 h |
| Ac-GLYGGYGV-NH2 [GV8] |  |  | minimal critical gelation concentration (cgc) ([1]; in water): 10 mM; effect on wound closure versus control wounds (topical puncture wounds): promoted and accelerated wound closure |
| E2(SL)6E2GRGDS |  |  | storage modulus (G′) [2]: about 480 Pa |
| GA8: Ac-GLYGGYGX-NH2 (SEQ ID NO: 11) peptide, C-terminus Val residue mutated to Ala (Ac-GLYGGYGA-NH2) |  | not able to form gels in water |  |
| GF8: Ac-GLYGGYGX-NH2 (SEQ ID NO: 11) peptide, C-terminus Val residue mutated to Phe (Ac-GLYGGYGF-NH2) | remained in solution with some gel-like formation observed overtime | not able to form gels in water |  |
| GK8: Ac-GLYGGYGX-NH2 (SEQ ID NO: 11) peptide, C-terminus Val residue mutated to Lys (Ac-GLYGGYGK-NH2) |  | not able to form gels in water |  |
| GL8: Ac-GLYGGYGX-NH2 (SEQ ID NO: 11) peptide, C-terminus Val residue mutated to Leu (Ac-GLYGGYGL-NH2) | self-assembled into large (mm-size) and stiff beads | not able to form gels in water | Young's modulus, dried ([3]; dried condition): 8.34 GPa; Young's modulus, hydrated ([3]; hydrated condition): 3.03 GPa |
| GS8: Ac-GLYGGYGX-NH2 (SEQ ID NO: 11) peptide, C-terminus Val residue mutated to Ser (Ac-GLYGGYGS-NH2) |  | not able to form gels in water |  |

— US12037418B2, “Hydrogel-forming peptides, and methods of use thereof” (Nanyang Technological University, priority 2020, dated 2024)
